# Source: patent US20160222105A1 (MacroGenics, published 2016)
# Columns and labels:
# [1] = target: T1, gpA33 on human cancer cells (human, UniProt Q99795 22-319); assay: cell-based or functional assay
# T1 sequence (looked up): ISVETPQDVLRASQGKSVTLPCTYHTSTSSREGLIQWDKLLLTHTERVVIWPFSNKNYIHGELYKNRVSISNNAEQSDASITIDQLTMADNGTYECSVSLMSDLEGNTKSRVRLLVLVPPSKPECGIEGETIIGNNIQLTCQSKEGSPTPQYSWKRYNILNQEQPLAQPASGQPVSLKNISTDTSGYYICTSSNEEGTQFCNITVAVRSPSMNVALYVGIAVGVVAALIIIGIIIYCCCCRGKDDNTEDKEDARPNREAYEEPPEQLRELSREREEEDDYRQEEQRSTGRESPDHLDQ
# soluble CD3 fragment = target: T2, soluble CD3 fragment (Homo sapiens (Human), UniProt P07766 23-127; P04234 22-101); assay: sandwich plate assay titled 'shCD3 capture/gpA33 detection': soluble CD3 immobilized, diabody titrated, bound diabody detected with gpA33; the signal needs binding to both CD3 and gpA33
# T2 construct: copies: 1 + 1
# T2 sequence (P07766 other isoform, or with tags, fused parts or gaps limits assumed): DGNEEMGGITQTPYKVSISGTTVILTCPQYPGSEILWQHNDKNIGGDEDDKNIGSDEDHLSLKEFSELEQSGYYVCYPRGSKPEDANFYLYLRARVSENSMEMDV
# Method: The detection of binding was assessed by the capacity of immobilized antibodies to additionally bind gpA33.
# human gpA33 = target: T3, human gpA33 (human, UniProt Q99795 22-235, limits assumed); assay: simultaneous-binding assay; group statement
# T3 construct: There it is printed only as gpA33; also called A33 antigen
# T3 sequence (looked up): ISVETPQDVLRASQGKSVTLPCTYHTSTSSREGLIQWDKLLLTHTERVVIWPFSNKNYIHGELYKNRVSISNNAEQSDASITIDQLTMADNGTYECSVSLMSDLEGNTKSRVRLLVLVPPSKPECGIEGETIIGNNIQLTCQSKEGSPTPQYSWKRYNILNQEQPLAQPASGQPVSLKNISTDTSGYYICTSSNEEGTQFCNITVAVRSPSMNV
Binder,"EC50 of redirected killing, ASPC-1 cells, E:T 10:1 [1]","EC50 of redirected killing, Colo205 cells, E:T 10:1 [1]","EC50 of redirected killing, Colon CSLC cells, human PBMC E:T 25:1 [1]",EC50 (read off the curve) (soluble CD3 fragment),binding result (human gpA33)
"gpA33 × CD3 bi-specific monovalent diabody (DART-1) (bispecific antibody, Disulfide-bonded heterodimer with murine anti-gpA33 variable domains; also called gpA33 × CD3 DART 1) chain 1: QAVVTQEPSLTVSPGGTVTLTCRSSTGAVTTSNYANWVQQKPGQAPRGLIGGTNKRAPWTPARFSGSLLGGKAALTITGAQAEDEADYYCALWYSNLWVFGGGTKLTVLGGGGSGGGGQVQLQQSGPELVKPGASVKISCKASGYTFSGSWMNWVKQRPGQGLEWIGRIYPGDGETNYNGKFKDKATLTADKSSTTAYMELSSLTSVDSAVYFCARIYGNNVYFDVWGAGTTVTVSSGGCGGGEVAALEKEVAALEKEVAALEKEVAALEK chain 2: QIVLTQSPAIMSASPGERVTMTCSARSSISFMYWYQQKPGSSPRLLIYDTSNLASGVPVRFSGSGSGTSYSLTISRMEAEDAATYYCQQWSSYPLTFGSGTKLELKRGGGSGGGGEVQLVESGGGLVQPGGSLRLSCAASGFTFNTYAMNWVRQAPGKGLEWVARIRSKYNNYATYYADSVKDRFTISRDDSKNSLYLQMNSLKTEDTAVYYCVRHGNFGNSYVSWFAYWGQGTLVTVSSGGCGGGKVAALKEKVAALKEKVAALKEKVAALKE",1.14 ng/mL,0.585 ng/mL,0.901 ng/mL,~200 ng/mL,
gpA33 × CD3 bi-specific monovalent diabody having an IgG Fc Domain version 2 (DART-2 w/Fc Version 2) (bispecific antibody) chain 1: DKTHTCPPCPAPEAAGGPSVFLFPPKPKDTLMISRTPEVTCVVVDVSHEDPEVKFNWYVDGVEVHNAKTKPREEQYNSTYRVVSVLTVLHQDWLNGKEYKCKVSNKALPAPIEKTISKAKGQPREPQVYTLPPSREEMTKNQVSLWCLVKGFYPSDIAVEWESNGQPENNYKTTPPVLDSDGSFFLYSKLTVDKSRWQQGNVFSCSVMHEALHNHYTQKSLSLSPGKAPSSSPMEDIQLTQSPSFLSASVGDRVTITCSARSSISFMYWYQQKPGKAPKLLIYDTSNLASGVPSRFSGSGSGTEFTLTISSLEAEDAATYYCQQWSSYPLTFGQGTKLEIKGGGSGGGGEVQLVESGGGLVQPGGSLRLSCAASGFTFSTYAMNWVRQAPGKGLEWVGRIRSKYNNYATYYADSVKDRFTISRDDSKNSLYLQMNSLKTEDTAVYYCVRHGNFGNSYVSWFAYWGQGTLVTVSSGGCGGGKVAALKEKVAALKEKVAALKEKVAALKE chain 2: QAVVTQEPSLTVSPGGTVTLTCRSSTGAVTTSNYANWVQQKPGQAPRGLIGGTNKRAPWTPARFSGSLLGGKAALTITGAQAEDEADYYCALWYSNLWVFGGGTKLTVLGGGGSGGGGQVQLVQSGAEVKKPGASVKVSCKASGYTFTGSWMNWVRQAPGQGLEWIGRIYPGDGETNYNGKFKDRVTITADKSTSTAYMELSSLRSEDTAVYYCARIYGNNVYFDVWGQGTTVTVSSGGCGGGEVAALEKEVAALEKEVAALEKEVAALEK chain 3: not shown,,,,,binds
